Data published in the supplement of paper PMC7125110.
± gives the standard error. For some assays here: Fewer inactive variants are shown than the library holds.

B1: glmS ribozyme (parent)
chain: AUAAAAGCGCCAGAACUACAGAAAUGUAGUUGACGAGGAGGAGGUUUAUCGAAUUUUCGGCGGAUGCCUCCAAA

Key:
Conditions in all cases: with glucosamine-6-phosphate
glucosamine-6-phosphate [1] = variants of: B1; assay: kcat; higher = faster cleavage; RNA array
Method in brief: (§1)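 Barcoded ribozyme variants were transcribed in situ on sequenced MiSeq chips by E. coli RNA polymerase. At 37 °C, a hybridised Cy3 probe tracked them while glucosamine-6-phosphate (40 μM to 10 mM) in HEPES/KCl/Mg(OAc)2 buffer flowed in and tiles were imaged over ~14 h. Per-tile medians of signals normalised to baseline and to non-cleaving reference variants were fit to one- or two-exponential decays, giving kobs. kcat and KM came from weighted Michaelis–Menten fits across concentrations.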

glucosamine-6-phosphate [2] = variants of: B1; assay: self-cleavage kobs at 10000 uM GlcN6P; higher = faster cleavage; RNA array
Method in brief: as §1

glucosamine-6-phosphate [3] = variants of: B1; assay: self-cleavage kobs at 40 uM GlcN6P; higher = faster cleavage; RNA array
Method in brief: as §1

glucosamine-6-phosphate [4] = variants of: B1; assay: self-cleavage kobs at 2500 uM GlcN6P; higher = faster cleavage; RNA array
Method in brief: as §1

glucosamine-6-phosphate [5] = variants of: B1; assay: KM; higher = weaker cofactor use; RNA array
Method in brief: as §1

glucosamine-6-phosphate [6] = variants of: B1; assay: self-cleavage kobs at 640 uM GlcN6P; higher = faster cleavage; RNA array
Method in brief: as §1

glucosamine-6-phosphate [7] = variants of: B1; assay: self-cleavage kobs at 160 uM GlcN6P; higher = faster cleavage; RNA array
Method in brief: as §1

Variant	kcat (glucosamine-6-phosphate [1]) [s⁻¹]	self-cleavage kobs at 10000 uM GlcN6P (glucosamine-6-phosphate [2]) [s⁻¹]	self-cleavage kobs at 40 uM GlcN6P (glucosamine-6-phosphate [3]) [s⁻¹]	self-cleavage kobs at 2500 uM GlcN6P (glucosamine-6-phosphate [4]) [s⁻¹]	KM (glucosamine-6-phosphate [5]) [µM]	self-cleavage kobs at 640 uM GlcN6P (glucosamine-6-phosphate [6]) [s⁻¹]	self-cleavage kobs at 160 uM GlcN6P (glucosamine-6-phosphate [7]) [s⁻¹]
G43A U55A	0.00026 ± 7.6e-05	8.23e-05 ± 1.2e-05	–	–	–	–	–
U46A C68G	2.56e-05 ± 5.1e-06	–	< 1e-05	3.32e-05 ± 1.5e-05	–	–	–
G44A G66U	2.15e-05 ± 1.4e-06	–	–	–	2150 ± 520	–	–
U45C U56C	0.000492 ± 4.3e-05	0.000319 ± 4.5e-05	–	0.000149 ± 3e-05	5500 ± 810	5.37e-05 ± 1.2e-05	–
G43C A53G C68U	0.00152 ± 0.00074	–	5.01e-05 ± 1.4e-05	0.000879 ± 0.00022	–	0.000435 ± 0.00011	0.000102 ± 2.7e-05
G44C U47A	8.35e-05 ± 6.6e-06	7.67e-05 ± 1.8e-05	–	5.07e-05 ± 1.6e-05	1270 ± 350	–	–
G44C U47C	1.4e-05 ± 4.3e-06	–	–	–	–	–	–
G44U U56A	0.000132 ± 9e-06	0.000102 ± 9.4e-06	< 1e-05	6.59e-05 ± 1e-05	2840 ± 550	–	–
G44C U55G	5.43e-05 ± 1.8e-05	4.43e-05 ± 2.1e-05	–	5.66e-05 ± 2.2e-05	–	–	–
U45G U65A	0.0042 ± 0.00043	0.00326 ± 0.00059	8.89e-05 ± 2.1e-05	0.00264 ± 0.0004	1990 ± 290	0.001 ± 0.00012	0.000296 ± 5.3e-05
U46A A64G	0.00469 ± 0.0011	0.00373 ± 0.00065	0.000102 ± 2.3e-05	0.00242 ± 0.00047	2700 ± 990	0.000754 ± 0.00015	–
U46A A64C	4.04e-05 ± 4.1e-06	–	< 1e-05	–	–	–	–
U46C G66A	0.000975 ± 0.00019	0.00107 ± 0.00025	5.14e-05 ± 1e-05	0.000662 ± 0.00023	799 ± 250	0.000364 ± 9.2e-05	–
A42U U56A	0.000109 ± 7.4e-06	8.21e-05 ± 9.2e-06	–	4.97e-05 ± 1.4e-05	3230 ± 710	–	–
U45A U49G	0.00163 ± 0.00032	0.00132 ± 0.00015	5.25e-05 ± 1e-05	0.0012 ± 0.00012	1560 ± 570	0.000385 ± 5.1e-05	0.000194 ± 4.9e-05
G44C C71U	1.52e-05 ± 3.3e-06	–	–	–	–	–	–
G43A U54G	0.000123 ± 6e-06	9.76e-05 ± 1.9e-05	–	6.39e-05 ± 1.5e-05	2490 ± 310	–	–
U46G U65G	0.00226 ± 0.00027	0.0019 ± 0.0003	4.1e-05 ± 8.8e-06	0.00124 ± 0.00017	2130 ± 380	0.000467 ± 7.5e-05	0.000189 ± 3.4e-05

Variant	kcat (glucosamine-6-phosphate [1]) [s⁻¹]	self-cleavage kobs at 10000 uM GlcN6P (glucosamine-6-phosphate [2]) [s⁻¹]	self-cleavage kobs at 40 uM GlcN6P (glucosamine-6-phosphate [3]) [s⁻¹]	self-cleavage kobs at 2500 uM GlcN6P (glucosamine-6-phosphate [4]) [s⁻¹]	KM (glucosamine-6-phosphate [5]) [µM]	self-cleavage kobs at 640 uM GlcN6P (glucosamine-6-phosphate [6]) [s⁻¹]	self-cleavage kobs at 160 uM GlcN6P (glucosamine-6-phosphate [7]) [s⁻¹]
U46G U65C	4.23e-05 ± 1.3e-06	3.6e-05 ± 7.3e-06	–	–	1730 ± 260	–	–
U45C U57A	1.9e-05 ± 2.7e-06	–	–	–	–	–	–
U45C U57C	1.67e-05 ± 1e-06	–	–	–	6920 ± 1000	–	–
G43A C70U	6.4e-05 ± 1.2e-05	5.31e-05 ± 8.3e-06	–	4.94e-05 ± 8.8e-06	–	–	–
U46C U56G	0.00195 ± 0.00027	0.00164 ± 0.00018	5.6e-05 ± 9.5e-06	0.00128 ± 0.00017	1390 ± 310	0.000736 ± 8.1e-05	0.000159 ± 3e-05
U46C A52U	0.0006 ± 0.00022	0.000199 ± 2.3e-05	< 1e-05	6.32e-05 ± 1.1e-05	–	3.24e-05 ± 1.6e-05	–
U46G U69C	0.0015 ± 0.00017	0.00149 ± 0.00027	0.000136 ± 3.6e-05	0.00128 ± 0.00028	539 ± 120	0.00072 ± 0.00016	0.000315 ± 7.8e-05
U46G U69A	0.000212 ± 5.4e-05	0.000143 ± 3.6e-05	6.14e-05 ± 1.9e-05	0.000306 ± 4.6e-05	–	0.000212 ± 4.2e-05	9.88e-05 ± 1.7e-05
U45A C58A	0.00117 ± 0.00038	0.000803 ± 0.00016	–	0.000822 ± 0.00019	–	0.000188 ± 3.8e-05	–
U45A C58G	0.000316 ± 8.7e-05	0.000222 ± 4.9e-05	–	0.000129 ± 3.2e-05	–	–	–
U45A C58U	0.000219 ± 4.8e-05	0.000149 ± 2.4e-05	< 1e-05	9.07e-05 ± 1.6e-05	4210 ± 1900	–	–
U46C U65G	0.000138 ± 2.3e-05	0.000113 ± 1.5e-05	–	0.000117 ± 2.4e-05	–	2.77e-05 ± 1.3e-05	–
U46C U65A	0.00399 ± 0.0019	0.00295 ± 0.00065	7.93e-05 ± 2.3e-05	0.00143 ± 0.00037	–	0.000444 ± 0.00012	–
G44U U55A	0.000317 ± 4.2e-05	0.000273 ± 3.2e-05	–	0.000288 ± 4.6e-05	891 ± 390	0.000157 ± 4e-05	–
U46G U54G	0.0123 ± 0.0017	0.0102 ± 0.003	0.000155 ± 2.6e-05	0.00479 ± 0.0013	3110 ± 510	0.00224 ± 0.0004	0.000596 ± 0.00017
G43U	4.89e-05 ± 4.3e-06	4.31e-05 ± 1.2e-06	< 1e-05	3.98e-05 ± 1.6e-06	986 ± 410	1.42e-05 ± 2e-06	–
G43A	9.3e-05 ± 6.9e-06	7.88e-05 ± 1.4e-06	–	6.37e-05 ± 1.8e-06	1560 ± 420	2.21e-05 ± 1.7e-06	–
